The labels stand for the following.
B1: Bet v 1.0101 peptide I56 to D69 [modified: biotin at the N-terminus, before the additional glycine; biotin at the N-terminus, before the additional glycine] [birch] / M0418 scFv-Fcε fusion protein [human] (parent)
chain 1: QVQLVQSGAEVKKPGESLKISCKGSEYSFPNYWIAWVRQMPGKGLEWMGMIYPGDSDTRYSPSFQGQVNISADKSSRTAFLEWSSLKASDSATYFCARLGGQLWNSYYYYYYMDVWGKGTTVTVSSGGGGSGGGGSGGGGSSYELTQPPSASGTPGQRVTISCSGSSSNIGGNTVNWYQQVPGTAPRLLIYKNNQRPSGVPDRFSGSKSGTSASLAISGLRSEDEADYYCEAWDGGLRGGVFGGGTKLTVLGDYKDDDDKAAA
chain 2: GISFPEGFPFKYVKDG

Variants of B1 are the subject of the experiment. Briefly: ELISA. The settings on record: with M0418 scFv-Fcε fusion protein [human], read off a plot. (In an ELISA, binding on a coated surface is turned into a signal by an enzyme label.)

For chain 2 GISFPEGFPAKYVKDG [chain 2 F10A], the screen value (10X dilution) was -0% and the screen value (100X dilution) was found to be 38%.
For the variant chain 2 GISFPEGFPFKAVKDG [chain 2 Y12A], the screen value was determined as 3% (10X dilution) and 79% (100X dilution).
For chain 2 GIAFPEGFPFKYVKDG [chain 2 S3A], the screen value runs as follows: (10X dilution) -0%; (100X dilution) 9%.
For chain 2 GISFAEGFPFKYVKDG [chain 2 P5A], the screen value (10X dilution) amounted to 96% and the screen value (100X dilution) amounted to 98%.
In the same order, the values of chain 2 GISFPEGFPFKYVKAG [chain 2 D15A] are -0% and -0%.
The corresponding values for chain 2 GISAPEGFPFKYVKDG [chain 2 F4A] are -0% and 37%.
In the same order, the values of chain 2 GISFPEGFPFAYVKDG [chain 2 K11A] are 95% and 98%.
For the variant chain 2 GISFPAGFPFKYVKDG [chain 2 E6A], the screen value is -0% (10X dilution) and 14% (100X dilution).
The corresponding values for chain 2 GISFPEGAPFKYVKDG [chain 2 F8A] are 95% and 98%.
With chain 2 GISFPEAFPFKYVKDG [chain 2 G7A], the screen value stood at 43% (10X dilution) and 83% (100X dilution).
The corresponding values for chain 2 GISFPEGFPFKYAKDG [chain 2 V13A] are -0% and -0%.
The corresponding values for chain 2 GISFPEGFAFKYVKDG [chain 2 P9A] are 95% and 98%.
Take chain 2 GISFPEGFPFKYVADG [chain 2 K14A]: the screen value is, setting by setting: (10X dilution) -0%; (100X dilution) -0%.
As for chain 2 GASFPEGFPFKYVKDG [chain 2 I2A], the screen value is, setting by setting: (10X dilution) 5%; (100X dilution) 76%.

For the origin of these results see paper PMC4215112.
